Test [1] deals with T1, APP-Avi-soluble human LOX-1(61-273) (human, UniProt P78380 61-273). As to the kind of experiment: SET, IgG vs soluble human LOX-1.
The target of test [2] is T1, APP-Avi-soluble human LOX-1(61-273). As to the kind of experiment: SET, IgG vs soluble human LOX-1. Here is the method:
(§1) Affinity determination for anti-LOX-1 IgGs using Solution Equilibrium Titration (SET) was basically performed as described in the literature (Friguet et al., 1985 J Immunol Methods 77: 305-319). The assays were performed in a 96-well polypropylene plate (Thermo Scientific, Catalog no. AB-1127) using a constant concentration of LOX-1 antibody mixed with different concentrations of non-biotinylated human or cynomolgus monkey LOX-1 protein and incubated at 22° C. for 14 hours with constant shaking (300 rpm).
(§2) On a pre-blocked MSD plate (Meso Scale Discovery, catalog no. L21SA) biotinylated human or cynomolgus monkey soluble LOX-1 protein was immobilized and washed afterwards. The equilibrium binding reactions were then applied to the MSD plate with immobilized LOX-1 and incubated for 30 min. The unbound material was removed by washing the plate, and the captured antibody was detected by adding Sulfo-tagged goat anti-human IgG (Meso Scale Discovery, catalog no. R3AJ-1). After incubation and washing 1×MSD read buffer T(Meso Scale Discovery, catalog no. R92TC-2) was added and the plate was developed using a Sector Imager 6000 (Meso Scale Discovery). The data were transferred to Excel for analysis and plotted using GraphPad Prism v5. The KD values were determined by fitting the data to the following equation: […]
This is another data set of the same source.

The target of test [3] is T2, APP-Avi-soluble cynomolgus monkey LOX-1(61-273) (cynomolgus monkey).
T2 construct: Non-biotinylated as titrated antigen in SET, biotinylated for capture on the plate; also called cyno sLOX-1; cynomolgus monkey soluble LOX-1
As to the kind of experiment: SET, IgG vs soluble cynomolgus LOX-1. Here is the method:
as §1, §2

The target of test [4] is T1, APP-Avi-soluble human LOX-1(61-273). As to the kind of experiment: competition ELISA: oxLDL binding to plate-bound biotinylated human sLOX-1. Here is the method: NeutrAvidin 384 well plates were coated with 2.5 μg/ml biotinylated LOX-1 diluted in PBS. After blocking with 25% Block Ace (AbD Serotec, Cat#BUF029) in PBS, purified Fabs or IgGs diluted in PBS/1% BSA were added. Subsequently OxLDL (copper-sulfate oxidized LDL, Kalen Biomedical #770202) or MDA-LDL (Academy Biomedical, #20P-UMD-L102) ligand diluted in PBS/1% BSA were allowed to bind to coated LOX-1. Secondary antibody (HRP conjugated sheep anti ApoB IgG; The Binding Site) diluted 1:1,000 in PBS/1% BSA was added followed by addition of TMB substrate (Thermo Scientific). After 10 minutes 1M H2SO4 was added and absorbance was determined at 450 nm. During early screenings, Fab fragments were also tested in this oxLDL binding assay using Fab-containing crude E. coli lysates.
The ability of LOX-1 antibodies to inhibit oxLDL binding to LOX-1 protein was determined using the method described in Example 4. In addition to “high binding OxLDL” from Kalen Biomedical (catalog number 770212-7), which is generated by copper sulfate mediated oxidation of LDL, two other forms of modified LDL were tested in this assay: malondialdehyde modified LDL (Academy Bio-Medical Co. catalog number 20P-MD-L105) and hypochlorite modified LDL. Hypochlorite modified LDL was prepared according to the following procedure. Human LDL (Kalen Biomedical catalog number 770200-4) was diluted with PBS to a final concentration of 0.25 mg/mL. Sodium hypochlorite (NaOCI, JT Baker catalog number 9416-01) was then added to 0.1 mM final concentration. The solution was incubated at room temperate for 4 hours, then quenched by adding L-methionine to a final concentration of reaction by adding 5 μl of 100 mM Mehionine per 200 μl total volume.
In general terms: ELISA stands for enzyme-linked immunosorbent assay.

Test [5] has the same target. Briefly: competition ELISA: AGE-BSA binding to plate-bound biotinylated human sLOX-1. Here is the method:
Purified APP-Avi-soluble human soluble LOX-1(61-273) protein prepared as described in Example 1 was biotinylated as described in Example 5. NeutrAvidin 384 well plates were coated with 5 μg/ml biotinylated LOX-1 diluted in bicarbonate buffer (Thermo Scientific). After blocking with PBS/2% BSA/0.1% Tween20/0.1% TritonX-100, purified Fabs or IgGs diluted in PBS/2% BSA/0.1% Tween20/0.1% TritonX-100 were added. Subsequently AGE-BSA ligand (R&D Systems, #BT4127) diluted in PBS/2% BSA/0.1% Tween20/0.1% TritonX-100 was allowed to bind to coated LOX-1. Streptavidin-HRP (R&D Systems) diluted 1:200 in PBS/2% BSA/0.1% Tween20/0.1% TritonX-100 was added followed by addition of TMB substrate (Thermo Scientific). After 10 minutes 1M H₂SO₄ was added and absorbance was determined at 450 nm. Assay performance was affected by the type of BSA used for blocking and diluent solutions. For optimal assay performance, BSA from Sigma (catalog #A4503) was used.

Our source for the Kd and IC50 values is US20170260272A1 (Novartis, published 2017).

In general, IC50 refers to the concentration at which inhibition is half-maximal.

Like-named read-outs stand apart in the source and are kept apart here.

T2 sequence (chain, as listed by the source limits assumed): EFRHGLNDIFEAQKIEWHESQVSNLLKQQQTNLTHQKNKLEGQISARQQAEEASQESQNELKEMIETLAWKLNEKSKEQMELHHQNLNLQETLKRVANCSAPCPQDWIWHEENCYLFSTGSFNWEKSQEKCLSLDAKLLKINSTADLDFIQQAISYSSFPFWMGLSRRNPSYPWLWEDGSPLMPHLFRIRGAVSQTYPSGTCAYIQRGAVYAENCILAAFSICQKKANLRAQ

B1: MOR021433 (antibody, human IgG1, kappa, L234A L235A, V domains shown)
VH: QVQLVQSGAEVKKPGSSVKVSCKASGGTFSDYAISWVRQAPGQGLEWMGGIMPISGAPYYAQKFQGRVTITADESTSTAYMELSSLRSEDTAVYYCARDSSTSYYYYFDYWGQGTLVTVSS
VL: DIQMTQSPSSLSASVGDRVTITCRASQDINSWLAWYQQKPGKAPKLLIYQASNLQSGVPSRFSGSGSGTDFTLTISSLQPEDFATYYCQQIDHTPFTFGQGTKVEIKR
notes: also called MOR21433
Turning to B1, the Kd in test [1] was 2.5 pM; in test [2] it was 3 pM; in test [3], 4 pM. In addition, the IC50 is 2900 pM in test [4] and 1400 pM in test [5].

B2: MOR021435 (antibody, human IgG1, kappa, L234A L235A, V domains shown)
VH: QVQLVQSGAEVKKPGSSVKVSCKASGGTFSDYAISWVRQAPGQGLEWMGGIVPIVGTANYAQKFQGRVTITADESTSTAYMELSSLRSEDTAVYYCARDSSTSYYYYFDYWGQGTLVTVSS
VL: DIQMTQSPSSLSASVGDRVTITCRASQDINSWLAWYQQKPGKAPKLLIYQASNLQSGVPSRFSGSGSGTDFTLTISSLQPEDFATYYCQQMWQFPITFGQGTKVEIKR
notes: also called MOR21435
On to B2, for which the Kd amounted to 6 pM in test [1], 5 pM in test [2] and 5 pM in test [3]. Further, the values for the IC50 in test [4] and in test [5] were 2800 pM and 1700 pM, respectively.
